Data published in patent US20230052256A1.

Columns and labels:
[1] = biological target: recombinant human FGFR1b-Fc (R&D Systems) (human) (UniProt P11362); experiment: SPR (Biacore T200), hFGFR1b-Fc amine-coupled to a CM5 chip, antibody injected at 0-200 nM
[2] = biological target: recombinant human FGFR1b-Fc (R&D Systems) (human) (UniProt P11362); experiment: SPR (Biacore T200), hFGFR1b-Fc amine-coupled to CM5 chip, antibody injected
[3] = biological target: human FGFR2b (beta)-Fc, human Fc fusion (human); experiment: SPR (Biacore T200), hFGFR2b-Fc amine-coupled to a CM5 chip, antibody injected at 0-200 nM

recombinant human FGFR1b-Fc (R&D Systems) (human), sequence (P11362 other isoform, or with tags, fused parts or gaps limits assumed): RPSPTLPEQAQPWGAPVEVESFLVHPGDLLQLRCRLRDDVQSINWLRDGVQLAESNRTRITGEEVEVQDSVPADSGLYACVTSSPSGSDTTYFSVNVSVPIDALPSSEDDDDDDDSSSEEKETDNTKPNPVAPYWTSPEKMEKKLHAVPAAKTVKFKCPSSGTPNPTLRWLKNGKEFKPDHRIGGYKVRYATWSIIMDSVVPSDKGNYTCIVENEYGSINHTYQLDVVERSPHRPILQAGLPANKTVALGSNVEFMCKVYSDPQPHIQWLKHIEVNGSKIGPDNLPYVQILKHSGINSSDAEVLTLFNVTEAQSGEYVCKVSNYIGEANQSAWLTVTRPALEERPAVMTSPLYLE

B1: FPA144 (clinical stage anti-human FGFR2b specific antibody) (antibody, INN chains, looked up, V domains shown)
VH: QVQLVQSGAEVKKPGSSVKVSCKASGYIFTTYNVHWVRQAPGQGLEWIGSIYPDNGDTSYNQNFKGRATITADKSTSTAYMELSSLRSEDTAVYYCARGDFAYWGQGTLVTVSS
VL: DIQMTQSPSSLSASVGDRVTITCKASQGVSNDVAWYQQKPGKAPKLLIYSASYRYTGVPSRFSGSGSGTDFTFTISSLQPEDIATYYCQQHSTTPYTFGQGTKLEIK
- koff [1]: 0.00746 s⁻¹
- kon [1]: 33200 M⁻¹ s⁻¹
- Kd [2]: 225 nM
- Kd [3]: 0.75 nM
- koff [3]: 7.77e-05 s⁻¹
- kon [3]: 104000 M⁻¹ s⁻¹
